Experimental data from patent US7193044B1, “Compounds and methods for regulating apoptosis, and methods of making and screening for compounds that regulate apoptosis” (Immunogen, Inc., priority 2000, dated 2007).

Assays:
[1] = tested on: BAD Ser155 phosphorylation in HeLa cells; experiment: BAD phosphorylation in HeLa cells (western blot band-shift / anti-phospho-Ser155 antibody); type: cell-based, human
Method: A mammalian expression vector encoding mutant HA-BAD S155A, derived from the shorter murine BAD of SEQ ID NO:3, was constructed. HA-BAD S155A has an amino acid sequence wherein the serine at a position corresponding to Ser155 is substituted with alanine. A western blot was performed on WCL prepared from cells expressing the shorter murine BAD (SEQ ID NO:3), HA-BAD S112A, HA-BAD S136A, or HA-BAD S155A, and probed with anti-HA antibody.
A western blot analysis, probed with anti-HA antibody, was performed on lysates produced from the Forskolin treated and untreated (control) cells to determine whether Forskolin could induce the phosphorylation BAD or mutant BAD.
HeLa cells transiently expressing HA-BAD, HA-BAD S155A, HA-BAD S112A/S136A, or HA-BAD S112A/S136A/S155A were treated with Forskolin or a buffer control.
The HA-BAD S112A/S136A double mutant was transiently expressed in HeLa cells, and transfected cell cultures were treated with each of the GPCR ligands, individually and as a group. A western blot analysis, probed with anti-HA antibody, was performed on lysates produced from the treated and untreated (negative control) cells. […] Forskolin (FK) and no treatment (−) were positive and negative controls, respectively (FIG. 6(a), […], respectively).
Non-transfected HeLa cells were treated with Forskolin or L-epinephrine, followed by western blot analysis of cell lysates using anti-BAD antibodies.
Transformants were treated with L-epinephrine, then lysed and subjected to anti-HA western blot analysis.
To further test whether phosphorylation of Ser155 is dependent on the PI 3-kinase/Akt pathway, HeLa cells were transfected with the mutant HA-BAD S155A and pretreated with Wortmannin, an inhibitor of PI 3-kinase. These cells were then stimulated with epidermal growth factor (EGF), lysed and analyzed by western blot analysis.
For immunoprecipitation of all HA-BAD species, 1 μg of the anti-HA antibody was added to the cell lysates, and incubated at 4° C. for one hour. Protein G agarose (Pierce) was then added (50 μl/fraction of 50% slurry) and followed by a one hour incubation at 4° C. Beads were washed with RIPA buffer, boiled in loading buffer (2% SDS, 10% glycerol, 5% β-ME, 60 mM Tris, pH 6.8, 0.002% Bromophenol Blue) and loaded onto polyacrylamide gels. After electrophoresis, proteins were transferred to nitrocellulose membranes, and blots blocked in western wash buffer (40 mM Tris, pH 8.0, 150 mM NaCl, 0.2% NP-40) with 5% BSA for one hour at room temperature. Blots were incubated with primary antibody diluted in western wash buffer with 3% BSA at room temperature for 1–2 hours, washed with western wash buffer and incubated with secondary HRP-coupled antibody diluted in western wash buffer with 1.5% BSA, and washed extensively. Polypeptides were detected with the ECL chemiluminescence according to the manufacturers instructions (Amersham).

[2] = tested on: HeLa cells; experiment: Fluorescence-based beta-galactosidase assay of BAD-induced cell death in transfected HeLa cells; set-up: species or system human; conditions: SFM vs SFM+EGF, 12 hours
Method: FIG. 12(B) is a graphic representation of the results of a β-galactosidase assay. HeLa cells were co-transfected with the β-galactosidase gene and either HA-BAD (“WT”), HA-BAD S155A (“S155A”), HA-BAD S112A/S136A (“S112A/S136A”) or HA-BAD S112A/S136A/S155A (“AAA”). Transfected cells were then cultured in serum-free medium (SFM) or SFM supplemented with EGF (SFM+EGF) for 12 hours. Cell lysates were prepared and BAD-induced cell death was measured by the loss of β-galactosidase activity in a fluorescence-based assay. Fluorescence was measured at 465 nm. Results shown are the average and standard deviation of triplicate transfections (this experiment was repeated two more times with similar results). Expression levels of HA-tagged BAD and BAD mutants in transfected cell lysates were detected by anti-HA western blot analysis: HA-BAD (“WT”), HA-BAD S155A (“A”), HA-BAD S112A/S136A (“AA”), and HA-BAD S112A/S136A/S155A (“AAA”).
FIG. 12(C) is a graphic representation of the results of a β-galactosidase assay. HeLa cells were co-transfected with the β-galactosidase gene and either an empty vector (“CTL”), wild-type BAD (“WT”), the BAD S155A mutant (“S155A”) or the BAD S155D mutant (“S155D”). Cell lysates were prepared and BAD-induced cell death was measured by the loss of β-galactosidase activity in a fluorescence-based assay. Fluorescence was measured at 465 nm. Results shown are the average and standard deviation of triplicate transfections (this experiment was repeated two more times with similar results).
HeLa cells were co-transfected with the β-galactosidase gene and either wild-type BAD, BAD S155A, BAD S112A/S136A or BAD S112A/S136A/S155A. […] Cell lysates were prepared and BAD-induced cell death was measured by the loss of β-galactosidase activity in a fluorescence-based assay. […]
To measure β-gal activity, HeLa cells were plated in 12-well plates at 5×10^4 cells/well one day prior to transfection. […] Beta-gal activity was measured in extracts using a fluorogenic substrate (MUG, BIO-RAD FluorAce™ β-gal Reporter Assay, #170–3150). […]

B1: BAD S155A: mutant of shorter murine BAD, serine corresponding to Ser155 substituted with alanine; HA- or GST-tagged (protein)
chain: MFQIPEFEPSEQEDASATDRGLGPSLTEDQPGPYLAPGLLGSNIHQQGRAATNSHHGGAGAMETRSRHSSYPAGTEEDEGMEEELSPFRGRSRSAPPNLWAAQRYGRELRRMADEFEGSFKGLPRPKSAGTATQMRQSAGWTRIIQSWWDRNLGKGGSTPSQ
modifications: left off: small tags and cut ends
notes: mutant of shorter murine BAD, serine corresponding to Ser155 substituted with alanine; HA- or GST-tagged
band-shift (phosphorylation) of expressed BAD construct in response to L-epinephrine ([1]; HeLa cells): significantly reduced
reactivity with anti-phospho-Ser155 specific BAD antibody ([1]; HeLa cells treated with Forskolin): failure of the anti-phospho-Ser155 specific BAD antibody to react
growth factor (EGF)- and serum (FCS)-induced phosphorylation of expressed BAD mutant ([1]; HeLa cells, anti-HA western blot): dramatically reduced
phosphorylation of expressed BAD mutant ([1]; HeLa cells, anti-HA western blot, compared to single mutation of Ser112 or Ser136): dramatically reduced the phosphorylation of the murine BAD in HeLa cells
band-shift (phosphorylation) of expressed BAD construct in response to L-epinephrine ([1]; HeLa cells, listed as HA-BAD S155A): limited response
effect of EGF stimulation on pro-apoptotic activity of the BAD mutant [2]: does not eliminate the protective effect of EGF
